# Laboratory results: patent US7629323B2, “Manipulation of neuronal ion channels” (Northwestern University, priority 2003, dated 2009)
# T1: Kv3.4a/Kv3.1b heteromeric channels (Rattus norvegicus, UniProt P25122+Q63734)
# T1 construct: expressed in transfected cells; host or cells: HEK293
# T1 sequence (Q63734 1-625): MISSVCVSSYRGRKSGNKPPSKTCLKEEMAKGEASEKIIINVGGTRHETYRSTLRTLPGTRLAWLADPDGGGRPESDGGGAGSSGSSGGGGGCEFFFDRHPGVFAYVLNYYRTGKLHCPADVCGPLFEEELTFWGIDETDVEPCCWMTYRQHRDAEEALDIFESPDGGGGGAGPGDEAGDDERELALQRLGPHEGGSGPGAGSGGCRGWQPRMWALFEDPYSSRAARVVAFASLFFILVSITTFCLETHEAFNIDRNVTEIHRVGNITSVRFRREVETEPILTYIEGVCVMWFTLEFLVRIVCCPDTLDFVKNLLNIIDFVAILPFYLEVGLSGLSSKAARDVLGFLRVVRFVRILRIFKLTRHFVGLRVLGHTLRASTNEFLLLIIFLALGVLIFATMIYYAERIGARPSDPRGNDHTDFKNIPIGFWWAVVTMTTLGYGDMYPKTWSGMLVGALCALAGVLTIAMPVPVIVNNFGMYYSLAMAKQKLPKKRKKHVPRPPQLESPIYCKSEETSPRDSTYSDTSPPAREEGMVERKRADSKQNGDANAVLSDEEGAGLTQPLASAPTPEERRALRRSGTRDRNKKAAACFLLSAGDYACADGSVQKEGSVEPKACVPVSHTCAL
# T1 sequence (P25122 1-585): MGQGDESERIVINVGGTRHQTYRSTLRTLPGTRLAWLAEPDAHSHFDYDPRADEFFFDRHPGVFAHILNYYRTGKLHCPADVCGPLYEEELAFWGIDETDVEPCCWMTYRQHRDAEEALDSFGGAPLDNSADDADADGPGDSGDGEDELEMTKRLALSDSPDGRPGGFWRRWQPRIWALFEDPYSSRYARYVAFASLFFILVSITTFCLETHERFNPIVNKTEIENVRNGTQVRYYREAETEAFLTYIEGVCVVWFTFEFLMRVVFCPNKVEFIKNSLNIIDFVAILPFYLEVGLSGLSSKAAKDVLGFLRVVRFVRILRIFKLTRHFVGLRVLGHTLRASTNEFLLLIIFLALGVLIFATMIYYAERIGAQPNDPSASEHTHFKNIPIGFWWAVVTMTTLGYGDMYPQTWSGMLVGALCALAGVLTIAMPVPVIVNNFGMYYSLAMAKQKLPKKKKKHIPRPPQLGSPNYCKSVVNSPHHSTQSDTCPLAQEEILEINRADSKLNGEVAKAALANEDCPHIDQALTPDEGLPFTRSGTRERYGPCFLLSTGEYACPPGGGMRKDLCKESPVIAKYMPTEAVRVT
# Columns and labels:
# [1] = target: Kv3.4 protein (native, rat brain membranes / fast-spiking neurons) (rat) (UniProt Q63734); assay: cell-based or functional assay
# Kv3.4 mRNA = assay: siRNA suppression of Kv3.4 mRNA in HEK293/Kv3.4 cells, real-time quantitative PCR; assay type: cell-based, rat; details: normalized to transfection efficiency (60%)
# Procedure: For example, mammalian cells expressing the potassium channel were tested with siRNA vectors. HEK 293/Kv3.4a cells were generated by stable transfection with a linearized form of pcDNA3/Kv3.4a (Baranauskas et al., Nat Neurosci., 6:258 (2003)), and geneticin selection of a single clone. Kv3.4 expression was confirmed by quantitative PCR and Western blotting. Four target sequences were chosen (#1, #2, #3, and #4, described in more detail below). HEK293/Kv3.4 cells were transfected with these siRNA. To monitor transfection efficiency fluorescein labeled luciferase GL2-F1 siRNA (Dharmacon) was used. In transfected cells, labeled duplexes are detectable as discrete punctate cytoplasmic dots (Holen et al., Nucleic Acids Res., 30:1757 (2002)). Transfection efficiency was 60%, probably, due to high passage number.
# Real-time quantitative PCR employing SYBR green fluorescence detection was used to measure Kv3.4 cDNA abundance. As a control for the non-specific effects of siRNA duplexes, siRNA targeting Kv3.1 was used. The differences in the amount of extracted RNA were taken into account by normalization to β-actin. Variability in the amplification during PCR reactions was estimated by running five PCR reactions for the same cDNA sample. […]
# [2] = target: T1, Kv3.4a/Kv3.1b heteromeric channels; assay type: cell-based
# From the text: Electrophysiology. Whole-cell recordings used standard techniques^27,28. The internal solution consisted of (in mM): 30-90 K2SO4, 0-60 N-methyl-D-glucamine, 2 MgCl2, 40 HEPES, 5 EGTA, 12 phosphocreatine, 2 Na2ATP, 0.2 Na3GTP, and 0.1 leupeptin, pH 7.2 with H2SO4 (osmolarity 260-270 mOsm/l). The external solution consisted of (in mM): 140 Na-isethionate, 2 KCl, 4 MgCl2, 10 HEPES, 12 glucose and 0.001 TTX, pH 7.35 with NaOH (osmolarity 295-305 mOsm/l). The internal solution for current clamp recordings consisted of (in mM) 110 potassium methylsulphate, 2 MgCl2, 40 HEPES, 5 EGTA, 12 phosphocreatine, 2 Na2ATP, 0.2 Na3GTP, and 0.1 leupeptin, pH 7.2 with H2SO4 (osmolarity 260-270 mOsm/l). In the case of current clamp recordings, TTX was omitted from external solution. For the recordings in the presence of Ca^+2 ions EGTA was omitted from internal solution and 4 mM of MgCl2 was substituted by 2 mM of CaCl2 and 2 mM of MgCl2. […] Recordings were obtained with Axon Instruments 200 patch-clamp amplifier and controlled and monitored with a PC running pClamp software (version 7.0) (Axon Instruments Inc., Union City, Calif.). […] After seal rupture, series resistance (2-10 MΩ) was compensated (75-90%) and periodically monitored. […]
# Single cell RT-PCR (scRT-PCR). […] In the case of co-transfection with Kv3.4a and Kv3.1b cDNA, single cell RT-PCR was used to confirm the presence of both mRNAs in the recorded cell. […]
# Kv3.1b (rat) = Kv3.1b (rat) (UniProt P25122); assay: cell-based or functional assay
molecule,measurement,setting,value
BDS-I (from UniProt P11494 1-43) (peptide),duration of spikes in FS neurons,[1],53%
"duplex #4: 21-nt double-stranded RNA targeting rat Kv3.4 site D, GGCAGTGTTGAGCCGAAAC (SEQ ID NO:4), position 1825-1843 (second strand not cited, further chemistry not given here; listed as Rattus rattus)",estimated suppression of the levels of Kv3.4 mRNA in the transfected cells,Kv3.4 mRNA,50%
"CC[N+](CC)(CC)CC [TEA, tetraethylammonium]",block of K+ currents in Kv3.4a/Kv3.1b co-transfected HEK293 cells,[2],blocked
"Kv3.4a (protein, rat, UniProt Q63734 1-625, looked up) MISSVCVSSYRGRKSGNKPPSKTCLKEEMAKGEASEKIIINVGGTRHETYRSTLRTLPGTRLAWLADPDGGGRPESDGGGAGSSGSSGGGGGCEFFFDRHPGVFAYVLNYYRTGKLHCPADVCGPLFEEELTFWGIDETDVEPCCWMTYRQHRDAEEALDIFESPDGGGGGAGPGDEAGDDERELALQRLGPHEGGSGPGAGSGGCRGWQPRMWALFEDPYSSRAARVVAFASLFFILVSITTFCLETHEAFNIDRNVTEIHRVGNITSVRFRREVETEPILTYIEGVCVMWFTLEFLVRIVCCPDTLDFVKNLLNIIDFVAILPFYLEVGLSGLSSKAARDVLGFLRVVRFVRILRIFKLTRHFVGLRVLGHTLRASTNEFLLLIIFLALGVLIFATMIYYAERIGARPSDPRGNDHTDFKNIPIGFWWAVVTMTTLGYGDMYPKTWSGMLVGALCALAGVLTIAMPVPVIVNNFGMYYSLAMAKQKLPKKRKKHVPRPPQLESPIYCKSEETSPRDSTYSDTSPPAREEGMVERKRADSKQNGDANAVLSDEEGAGLTQPLASAPTPEERRALRRSGTRDRNKKAAACFLLSAGDYACADGSVQKEGSVEPKACVPVSHTCAL",fast inactivation time constant of K+ currents in co-transfected HEK293 cells,Kv3.1b (rat),38 ms
same,"mean burst duration (long bursts), single channel recording of co-transfected HEK293 cells",Kv3.1b (rat),250 ms
same,"mean burst duration (short bursts), single channel recording of co-transfected HEK293 cells",Kv3.1b (rat),16.2 ms
